# Assay results from patent US20260062488A1 (AbbVie / Abbott, published 2026).
# B1: Ab-h1.9d-WT (antibody, human IgG1, kappa)
# heavy: not shown
# light: DIQMTQSPSSLSASVGDRVTITCHASQDISDNIGWLQQKPGKSFKLLIYHGTNLEDGVPSRFSGSGSGTDYTLTISSLQPEDFATYYCVQYAQFPWTFGGGTKVEIKRTVAAPSVFIFPPSDEQLKSGTASVVCLLNNFYPREAKVQWKVDNALQSGNSQESVTEQDSKDSTYSLSSTLTLSKADYEKHKVYACEVTHQGLSSPVTKSFNRGEC
# notes: IgG1/kappa with D356E and L358M (EU); also called Anti-human α4β7 (AC-166667) hu IgG1/k WT mAb
# How the values were obtained:
# [1] = target: T1, cynomolgus FcγRI extracellular domain protein (cynomolgus monkey); assay: SPR (Biacore), N = 1
# T1 construct: extracellular domain; also called Cyno FcγRI
# [2] = target: T2, cynomolgus FcγRIIa extracellular domain protein (cynomolgus monkey); assay: SPR (Biacore), N = 1
# T2 construct: extracellular domain; also called Cyno FcγRIIa
# [3] = target: T3, cynomolgus FcγRIIb extracellular domain protein (cynomolgus monkey); assay: SPR (Biacore), N = 1
# T3 construct: extracellular domain; also called Cyno FcγRIIb
# [4] = target: T4, cynomolgus FcγRIII extracellular domain protein (cynomolgus monkey, UniProt Q8SPW2 17-208); assay: SPR (Biacore), N = 1
# T4 construct: extracellular domain; also called Cyno FcγRIII
# cynomolgus α4β7 integrin [5] = target: T5, cynomolgus α4β7 integrin (cynomolgus monkey); assay: FACS, cynomolgus lymphocytes
# T5 construct: whole, on cells; On CHOK1-cα4β7 cells or cynomolgus blood lymphocytes; also called cα4β7; cyno α4β7
# cynomolgus α4β7 integrin [6] = target: T5, cynomolgus α4β7 integrin; assay: FACS, cyno CD4+ memory T cells
# cynomolgus α4β7 integrin [7] = target: T5, cynomolgus α4β7 integrin; assay: FACS, cynomolgus CD4+ T cells
# cynomolgus α4β7 integrin [8] = target: T5, cynomolgus α4β7 integrin; assay: FACS, cyno CD4+ naïve T cells
# cynomolgus α4β7 integrin [9] = target: T5, cynomolgus α4β7 integrin; assay: FACS, cyno CD4+ total
# [10] = target: T6, human FcγRIIIa (F158) extracellular domain protein (human, UniProt P08637 17-208); assay: SPR (Biacore T200), His-tagged FcγR captured by anti-His, antibody injected
# T6 construct: extracellular domain; also called hFcγRIIIa (F158); FcγRIIIa158F
# [11] = target: T7, human FcγRIIIa (V158) extracellular domain protein (human, UniProt P08637 17-208); assay: as above
# T7 construct: extracellular domain; also called hFcγRIIIa (V158); FcγRIIIa158V
# [12] = target: T8, human FcγRIIa (H131) extracellular domain protein (human, UniProt P12318 34-217); assay: as above
# T8 construct: extracellular domain; also called hFcγRIIa (H131); FcγRIIa 131H
# T8 sequence (looked up): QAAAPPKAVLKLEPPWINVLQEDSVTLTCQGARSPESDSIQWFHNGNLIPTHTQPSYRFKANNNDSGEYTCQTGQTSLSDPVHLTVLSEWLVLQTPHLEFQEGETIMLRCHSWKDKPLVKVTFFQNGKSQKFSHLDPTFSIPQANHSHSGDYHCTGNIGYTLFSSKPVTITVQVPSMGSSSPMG
# [13] = target: T9, human FcγRI extracellular domain protein (human, UniProt P12314 16-292); assay: as above
# T9 construct: extracellular domain; also called hFcγRI
# human FcRn ECD protein = target: T10, human FcRn ECD protein (human, UniProt P55899 24-297; P61769 21-119); assay: SPR (Biacore), antibody immobilised, FcRn injected, pH 6.0, steady state; pH 6.0
# T10 construct: extracellular domain
# [14] = target: T11, cynomolgus FcRn ECD protein (cynomolgus monkey, UniProt Q8SPV9 24-297; Q8SPW0 21-119); assay: as above
# T11 construct: extracellular domain
# cynomolgus α4β7 integrin [15] = target: T5, cynomolgus α4β7 integrin; assay: FACS, cyno CD4+ total; remark: listed apart in the source
# cynomolgus α4β7 integrin [16] = target: T5, cynomolgus α4β7 integrin; assay: FACS, cyno CD4+ memory
# cynomolgus α4β7 integrin [17] = target: T5, cynomolgus α4β7 integrin; assay: binding, cynomolgus CD8+ memory T cells, summary table
# cynomolgus α4β7 integrin [18] = target: T5, cynomolgus α4β7 integrin; assay: FACS, cyno CD8+ naïve T cells
# rabbit α4β7 integrin = target: T12, rabbit α4β7 integrin (rabbit); assay: FACS, rabbit lymphocytes
# T12 construct: whole, on cells; On rabbit PBMCs
# FcgRIIIB NA2 = target: T13, FcgRIIIB NA2 (human, UniProt O75015); assay: flow cytometry on CHO-K1 cells expressing the receptor (curve FcgRIIIB NA2), monomeric antibody, F(ab')2 anti-human IgG AF647; N=1
# T13 construct: cell surface, on engineered CHO-K1 cells; the list of molecules has only an FcγRIIIb on CHO-K1 cells without the allotype; also called human FcγRIIIb (NA2) on CHO-K1 cells
# cynomolgus α4β7 integrin [19] = target: T5, cynomolgus α4β7 integrin; assay: binding, cynomolgus lymphocytes, summary table
# cynomolgus α4β7 integrin [20] = target: T5, cynomolgus α4β7 integrin; assay: FACS, cyno CD8+ total
# cynomolgus α4β7 integrin [21] = target: T5, cynomolgus α4β7 integrin; assay: FACS, cyno total CD8+ T cells
# FcgRIIA R131 = target: T14, FcgRIIA R131 (human, UniProt P12318); assay: flow cytometry on CHO-K1 cells expressing the receptor (curve FcgRIIA R131), monomeric antibody, F(ab')2 anti-human IgG AF647; N=1
# T14 construct: cell surface, on engineered CHO-K1 cells; the list of molecules has only an FcγRIIa on CHO-K1 cells without the variant; also called human FcγRIIa (R131) on CHO-K1 cells
# T14 sequence (receptor chain, looked up): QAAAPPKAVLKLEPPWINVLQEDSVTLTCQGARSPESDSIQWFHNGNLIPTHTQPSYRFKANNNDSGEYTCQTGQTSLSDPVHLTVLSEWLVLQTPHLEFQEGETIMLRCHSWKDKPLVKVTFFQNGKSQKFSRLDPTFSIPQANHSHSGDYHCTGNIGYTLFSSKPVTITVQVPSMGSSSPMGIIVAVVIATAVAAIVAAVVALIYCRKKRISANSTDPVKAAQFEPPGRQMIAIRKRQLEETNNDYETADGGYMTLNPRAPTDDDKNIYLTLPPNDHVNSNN
# cynomolgus α4β7 integrin [22] = target: T5, cynomolgus α4β7 integrin; assay: FACS, cyno CD4+ memory; remark: listed apart in the source
# cynomolgus α4β7 integrin [23] = target: T5, cynomolgus α4β7 integrin; assay: FACS, cyno total CD4+ T cells
# T10 sequence (P55899 24-297 limits assumed, chain 1 of 2): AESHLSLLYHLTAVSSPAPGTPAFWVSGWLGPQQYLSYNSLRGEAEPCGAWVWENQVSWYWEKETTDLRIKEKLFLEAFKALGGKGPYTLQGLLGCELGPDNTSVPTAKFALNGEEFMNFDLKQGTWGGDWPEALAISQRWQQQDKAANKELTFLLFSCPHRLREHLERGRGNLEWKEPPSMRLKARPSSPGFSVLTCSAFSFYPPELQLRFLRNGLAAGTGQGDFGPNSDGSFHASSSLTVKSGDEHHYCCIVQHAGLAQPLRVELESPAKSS
# T10 sequence (P61769 21-119 limits assumed, chain 2 of 2): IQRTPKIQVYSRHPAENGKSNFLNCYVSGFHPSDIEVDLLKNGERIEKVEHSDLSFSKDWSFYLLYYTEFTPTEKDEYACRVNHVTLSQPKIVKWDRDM
# T4 sequence (Q8SPW2 17-208): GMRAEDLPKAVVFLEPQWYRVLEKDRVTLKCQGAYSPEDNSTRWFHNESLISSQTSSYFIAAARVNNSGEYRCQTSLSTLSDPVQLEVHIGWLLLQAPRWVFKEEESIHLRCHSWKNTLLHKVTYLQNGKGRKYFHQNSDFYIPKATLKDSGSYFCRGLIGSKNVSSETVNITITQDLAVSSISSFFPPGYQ
# T7 sequence (P08637 17-208 F176V limits assumed): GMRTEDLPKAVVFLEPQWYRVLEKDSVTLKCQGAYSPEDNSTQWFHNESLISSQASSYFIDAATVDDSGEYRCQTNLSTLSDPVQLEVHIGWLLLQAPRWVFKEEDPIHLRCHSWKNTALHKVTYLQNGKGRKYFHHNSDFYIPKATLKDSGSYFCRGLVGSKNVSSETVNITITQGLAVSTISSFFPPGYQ
# T13 sequence (O75015 17-200 N65S limits assumed): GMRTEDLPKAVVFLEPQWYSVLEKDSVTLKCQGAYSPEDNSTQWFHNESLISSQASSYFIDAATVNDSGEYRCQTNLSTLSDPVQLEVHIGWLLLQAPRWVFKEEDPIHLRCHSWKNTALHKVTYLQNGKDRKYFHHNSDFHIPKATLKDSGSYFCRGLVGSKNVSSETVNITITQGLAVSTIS
# T6 sequence (P08637 17-208): as the sequence (P08637 17-208 F176V limits assumed) above, with V160F counted along it
# T9 sequence (P12314 16-292): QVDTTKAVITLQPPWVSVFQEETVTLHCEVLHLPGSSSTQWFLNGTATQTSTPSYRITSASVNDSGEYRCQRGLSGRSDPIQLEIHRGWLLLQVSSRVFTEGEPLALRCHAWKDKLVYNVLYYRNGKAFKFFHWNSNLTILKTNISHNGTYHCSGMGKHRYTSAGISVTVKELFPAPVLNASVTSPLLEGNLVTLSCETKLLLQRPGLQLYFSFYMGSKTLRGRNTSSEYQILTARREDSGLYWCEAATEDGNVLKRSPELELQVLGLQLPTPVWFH
# T11 sequence (Q8SPV9 24-297 limits assumed, chain 1 of 2): as the sequence (P55899 24-297 limits assumed, chain 1 of 2) above, with N39D, E44Q, G99S, S189G, S190N, L217M, S269T counted along it
# T11 sequence (Q8SPW0 21-119 limits assumed, chain 2 of 2): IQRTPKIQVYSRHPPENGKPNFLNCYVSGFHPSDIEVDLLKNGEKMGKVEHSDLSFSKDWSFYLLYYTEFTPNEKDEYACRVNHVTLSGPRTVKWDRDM
binder,measurement,setting,value
B1,Kd,[1],1.4 nM
same,Kd,[2],8200 nM
same,Kd,[3],7100 nM
same,Kd,[4],160 nM
same,EC50,cynomolgus α4β7 integrin [5],0.062 nM
same,EC50,cynomolgus α4β7 integrin [6],0.01 nM
same,EC50,cynomolgus α4β7 integrin [7],0.03 nM
same,EC50,cynomolgus α4β7 integrin [8],0.045 nM
same,EC50,cynomolgus α4β7 integrin [9],0.03 nM
same,Kd,[10],4600 nM
same,Kd,[11],480 nM
same,Kd,[12],5600 nM
same,Kd,[13],16 nM
same,Kd,human FcRn ECD protein,3300 nM
same,Kd,[14],2200 nM
same,EC50,cynomolgus α4β7 integrin [15],0.03 nM
same,EC50,cynomolgus α4β7 integrin [16],0.01 nM
same,EC50,cynomolgus α4β7 integrin [17],0.036 nM
same,EC50,cynomolgus α4β7 integrin [18],0.042 nM
same,EC50,rabbit α4β7 integrin,0.089 nM
same,binding result,FcgRIIIB NA2,binds
same,EC50,cynomolgus α4β7 integrin [19],0.062 nM
same,EC50,cynomolgus α4β7 integrin [20],0.035 nM
same,EC50,cynomolgus α4β7 integrin [21],0.035 nM
same,binding result,FcgRIIA R131,binds
same,EC50,cynomolgus α4β7 integrin [22],0.01 nM
same,EC50,cynomolgus α4β7 integrin [23],0.03 nM
